Results: patent publication US20020193570A1 (EMD LEXIGEN RESEARCH CENTER, published 2002)

T1: Fc-p40 fusion protein (human, UniProt P29460 23-328)
T1 construct: mature; Expected to dimerize through the Fc; not shown: human IgG1 Fc (vector pdC-Fc-X)
T1 sequence (looked up): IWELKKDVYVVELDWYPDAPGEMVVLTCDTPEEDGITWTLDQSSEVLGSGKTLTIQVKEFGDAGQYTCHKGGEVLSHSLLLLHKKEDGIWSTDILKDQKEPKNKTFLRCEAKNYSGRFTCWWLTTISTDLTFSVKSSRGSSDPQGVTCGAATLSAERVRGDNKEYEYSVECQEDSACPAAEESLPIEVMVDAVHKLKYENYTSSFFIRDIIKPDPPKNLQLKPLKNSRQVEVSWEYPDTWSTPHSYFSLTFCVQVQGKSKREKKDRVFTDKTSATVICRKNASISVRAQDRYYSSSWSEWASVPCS

T2: free p40 subunit of human IL-12 (human, UniProt P29460 23-328)
T2 construct: mature
T2 sequence (looked up): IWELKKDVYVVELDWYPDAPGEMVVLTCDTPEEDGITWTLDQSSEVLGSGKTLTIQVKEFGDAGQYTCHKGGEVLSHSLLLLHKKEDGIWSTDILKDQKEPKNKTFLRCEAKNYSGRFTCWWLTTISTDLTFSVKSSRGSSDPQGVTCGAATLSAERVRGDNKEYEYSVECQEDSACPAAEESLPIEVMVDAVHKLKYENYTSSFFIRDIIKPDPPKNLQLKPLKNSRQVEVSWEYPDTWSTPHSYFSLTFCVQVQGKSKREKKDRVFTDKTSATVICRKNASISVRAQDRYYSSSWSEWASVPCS


Assays:
Fc-p40 fusion protein = target: T1, Fc-p40 fusion protein; assay: co-expression in 293 cells, protein A Sepharose precipitation of 35S-labelled supernatant, SDS-PAGE
Protocol: (§1) After 16 hr, the medium containing the precipitate was removed and replaced with fresh medium. After 3 days, the supernatant was removed and analyzed for production of transfected gene expression by ELISA, biological determination of IL-12 activity, or immunoprecipitation and analysis on SDS gels of radioactively labeled proteins. For labeling, medium without methionine was used to replace the growth medium on the second day of culture and ³⁵S-methionine (100 μCi/ml) is added. After an additional 16 hr incubation, the media was harvested, clarified by centrifugation (5 min at 13,000 rpm in a table top microcentrifuge) and incubated with protein A Sepharose beads (10 μl of bead volume per ml of culture supernatant). After 1 hr at room temperature, the beads were washed by repeated centrifugation and resuspension in PBS buffer containing 1% NP-40. The final pellet was resuspended in SDS-containing gel buffer and boiled for 2 min. After removing the beads by centrifugation, the supernatant was divided into two aliquots. Reducing agent (5% 2-mercaptoethanol) was added to one sample and both are boiled for 5 min prior to loading on an SDS polyacrylamide gel. After electrophoresis the gel was exposed to X-ray film (autoradiography).
(§2) An example of an analysis of the co-expression of various fusion proteins and individually expressed proteins, under reducing conditions, is shown in FIG. 2. […] The p40 subunit, on the other hand, was readily secreted when fused to Fc (lane 2). The p35 subunit was secreted when it could pair with the p40 subunit, either as an Fc-p35 fusion pairing with an Fc-p40 fusion protein (lane 3), the Fc-p35 pairing with free p40 (lane 4), or free p35 pairing with the Fc-p40 fusion protein (lane 5). In all cases of expression of a free subunit, together with a fusion protein, the free subunit assembles with the other subunit and forms a covalent, disulfide bond. […]

[1] = target: T2, free p40 subunit of human IL-12; assay: as above
Protocol: as §1, §2

Row | binding result (Fc-p40 fusion protein) | binding result [1] | Binder
1 | binds |  | free p35 subunit of human IL-12 (ligand, UniProt P29459 23-219, looked up, mature) RNLPVATPDPGMFPCLHHSQNLLRAVSNMLQKARQTLEFYPCTSEEIDHEDITKDKTSTVEACLPLELTKNESCLNSRETSFITNGSCLASRKTSFMMALCLSSIYEDLKMYQVEFKTMNAKLLMDPKRQIFLDQNMLAVIDELMQALNFNSETVPQKSSLEEPDFYKTKIKLCILLHAFRIRAVTIDRVMSYLNAS
2 | binds | binds | Fc-p35 fusion protein (Fc fusion, human, UniProt P29459 23-219, looked up, mature; Expected to dimerize through the Fc; Not secreted unless paired with p40; not shown: human IgG1 Fc (vector pdC-Fc-X)) RNLPVATPDPGMFPCLHHSQNLLRAVSNMLQKARQTLEFYPCTSEEIDHEDITKDKTSTVEACLPLELTKNESCLNSRETSFITNGSCLASRKTSFMMALCLSSIYEDLKMYQVEFKTMNAKLLMDPKRQIFLDQNMLAVIDELMQALNFNSETVPQKSSLEEPDFYKTKIKLCILLHAFRIRAVTIDRVMSYLNAS
